Data reported in PMC2844450.

Tests used:
Experiment in all cases: enzyme inhibition kinetics
[1] = biological target: Factor Xa (activated factor X), plasma protein
[2] = biological target: Bovine α-chymotrypsin (bovine)
[3] = biological target: fXa-D189S (factor Xa with Asp-189 replaced by Ser)
[4] = biological target: Factor Xa (activated factor X), plasma protein; remark: listed apart in the source
[5] = biological target: fXa-D189S (factor Xa with Asp-189 replaced by Ser); remark: listed apart in the source

Human wild-type antithrombin (from UniProt P01008 33-464) (natural protein)
k2 (second-order association rate constant of inhibition), no heparin [1]: 3090 M⁻¹ s⁻¹ | k2 with heparin [1]: 4.35e+07 M⁻¹ s⁻¹ | k2 (second-order association rate constant of inhibition), no heparin [2]: 83 M⁻¹ s⁻¹ | KD with heparin (ternary encounter complex, first step) [3]: 194 nM | k2 with heparin [3]: 1.02e+06 M⁻¹ s⁻¹ | k2 with heparin (k/KD) [3]: 1e+06 M⁻¹ s⁻¹

ZPI in complex with protein Z (PZ) (from UniProt Q9UK55 22-444; P22891 41-400)
k2 (second-order rate constant of inhibition), presence of PZ [1]: 780000 | k2 (second-order rate constant of inhibition), presence of PZ [3]: 830000

B1: Protein Z-dependent protease inhibitor, wild type (natural protein)
chain: LAPSPQSPETPAPQNQTSRVVQAPKEEEEDEQEASEEKASEEEKAWLMASRQQLAKETSNFGFSLLRKISMRHDGNMVFSPFGMSLAMTGLMLGATGPTETQIKRGLHLQALKPTKPGLLPSLFKGLRETLSRNLELGLTQGSFAFIHKDFDVKETFFNLSKRYFDTECVPMNFRNASQAKRLMNHYINKETRGKIPKLFDEINPETKLILVDYILFKGKWLTPFDPVFTEVDTFHLDKYKTIKVPMMYGAGKFASTFDKNFRCHVLKLPYQGNATMLVVLMEKMGDHLALEDYLTTDLVETWLRNMKTRNMEVFFPKFKLDQKYEMHELLRQMGIRRIFSPFADLSELSATGRNLQVSRVLQRTVIEVDERGTEAVAGILSEITAYSMPPVIKVDRPFHFMIYEETSGMLLFLGRVVNPTLL
k2 (second-order rate constant of inhibition), absence of PZ [4]: 1900 | k2 (second-order rate constant of inhibition), absence of PZ [5]: 2300
